Reference: patent CN114195896A (AQUILARIA SINENSIS QINGSU BIOTECHNOLOGY CO LTD, dated 2022)

B1: 16-B7重组抗体 (16-B7 recombinant antibody, VHH fused to hIgG1 Fc) (Fc fusion)
chain: QARFVESGGGLVQSGGSLVLSCTVSDVTLDDYVTAWFRQAPGKEREGVSCISKRNFTSYVDSVKGRFTTSRDITKNTVLLQMNALTPEDTGVYYCATPILPSLAFGEVCSLQTEFRSWGPGTRVTVSS
notes: also called 16-B7纯化重组抗体; 原始序列16-B7; not shown: human IgG1 Fc from the expression vector pcDNA3.1-hIgG1-Fc2
B2: 商业化BCMA抗原蛋白 (ACRO BIOSYSTEMS, 货号BCA-H522y-1mg) (receptor, UniProt Q02223 1-54, looked up)
chain: MLQMAGQCSQNEYFDSLLHACIPCQLRCSSNTPPLTCQRYCNASVTNSVKGTNA
notes: also called 目标抗原BCMA; 靶蛋白BCMA

Legend:
[1] = target: BCMA expressed on recombinant cells (CHO-BCMA; Nalm6-BCMA-LUC) (UniProt Q02223); assay: flow cytometry on CHO-BCMA cells, purified antibody at 10, 2, 0.4 and 0.08 μg/mL
[2] = target: B2; assay: SPR, BCMA immobilised on the chip, recombinant antibody as the mobile phase
[3] = target: T1, 16-B7-HM4人源化重组抗体 (humanised 16-B7-HM4 recombinant antibody, VHH fused to hIgG1 Fc) (human, UniProt P01857-1 99-330 = IgG part, limits assumed); assay: as above
T1 construct: domain: Fc; also called 人源化重组抗体16-B7-HM4
T1 sequence (P01857 other isoform, or with tags, fused parts or gaps limits assumed): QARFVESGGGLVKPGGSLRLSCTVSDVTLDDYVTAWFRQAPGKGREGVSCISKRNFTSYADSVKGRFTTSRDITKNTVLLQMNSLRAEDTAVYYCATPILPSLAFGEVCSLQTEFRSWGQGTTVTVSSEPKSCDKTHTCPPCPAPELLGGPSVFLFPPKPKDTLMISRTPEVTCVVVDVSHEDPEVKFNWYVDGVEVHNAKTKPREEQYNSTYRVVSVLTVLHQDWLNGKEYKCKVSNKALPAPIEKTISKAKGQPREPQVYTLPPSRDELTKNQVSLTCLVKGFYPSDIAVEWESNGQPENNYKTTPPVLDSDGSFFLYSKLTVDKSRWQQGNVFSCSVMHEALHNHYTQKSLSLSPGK

Row | Binder | antibody concentration at saturation [1] [µg/mL] | Kd [2] [nM] | Kd [3] [nM]
1 | B1 | 2 | 3.73 | 
2 | B2 |  |  | 1.06
